Results reported in patent US20170112760.

Biological target: T1, RALA peptide
T1 chain: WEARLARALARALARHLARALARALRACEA

B1: proteinase K (protein)
chain: AAQTNAPWGLARISSTSPGTSTYYYDESAGQGSCVYVIDTGIEASHPEFEGRAQMVKTYYYSSRDGNGHGTHCAGTVGSRTYGVAKKTQLFGVKVLDDNGSGQYSTIIAGMDFVASDKNNRNCPKGVVASLSLGGGYSSSVNSAAARLQSSGVMVAVAAGNNNADARNYSPASEPSVCTVGASDRYDRRSSFSNYGSVLDIFGPGTSILSTWIGGSTRSISGTSMATPHVAGLAAYLMTLGKTTAASACRYIADTANKGDLSNIPFGTVNLLAYNNYQA
release of DNA from RALA/pEGFP-N1 nanoparticles on agarose gel after 30 min with 20% proteinase K (0.1 mg/mL): the RALA peptide is cleaved by proteinase K thus releasing the DNA into solution
